Experimental data published in US20250051449A1 (SURFACE ONCOLOGY, published 2025).

Experiments:
[1] = target: T1, human CD112R expressed on Jurkat cells (human, UniProt Q6DKI7 1-326); assay: flow cytometry, wild type Jurkat cells, 0.63 ug/mL antibody
T1 construct: whole, on cells; Used for both Jurkat-CD112R OE cells and wild type Jurkat cells; which cells is said under assay; also called PVRIG; Jurkat-CD112R OE
T1 sequence (looked up): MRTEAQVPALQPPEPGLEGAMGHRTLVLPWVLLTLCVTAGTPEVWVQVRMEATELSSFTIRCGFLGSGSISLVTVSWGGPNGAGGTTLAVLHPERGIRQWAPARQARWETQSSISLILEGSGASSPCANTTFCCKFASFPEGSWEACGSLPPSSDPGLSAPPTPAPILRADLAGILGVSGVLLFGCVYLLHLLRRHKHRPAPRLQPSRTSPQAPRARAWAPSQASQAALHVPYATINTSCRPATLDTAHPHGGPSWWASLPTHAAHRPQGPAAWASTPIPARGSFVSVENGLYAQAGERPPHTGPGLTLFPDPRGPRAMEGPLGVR
Description: (§1) The ability of anti-CD112R antibodies to bind to CD112R expressed on cells was evaluated. 1×10⁵ Jurkat cells (acute T cell leukemia cell line, ATCC #TIB-152) that were either wild type or engineered to over-express human CD112R (Jurkat-CD112R OE) were added to each well of a 96-well V bottom plate and stained with either anti-CD112R antibodies or an IgG1 isotype control (0.63 μg/mL) for 1 hour at 4° C. Cells were washed twice with PBS+2% FCS and resuspended with Alexa Fluor® 647 anti-human IgG Fc antibody (Biolegend, Cat #409320) diluted 1:100 in PBS+2% FCS and incubated at 4° C. for 30 minutes. Cells were subsequently washed twice and resuspended in PBS+2% FCS. Cellular data was acquired using a LSRFortessa X-20 (BD Biosciences) and analyzed with FlowJo software (Tree Star).

[2] = target: T1, human CD112R expressed on Jurkat cells; assay: flow cytometry, Jurkat cells over-expressing human CD112R, 0.63 ug/mL antibody
Description: as §1
Results are depicted in FIG. 1. Quantitation of antibody binding to Jurkat-CD112R OE cells was assessed by the geometric mean fluorescent intensity (gMFI) of the Alexa Fluor® 647 signal.

[3] = target: T1, human CD112R expressed on Jurkat cells; assay: flow cytometry competition on Jurkat-CD112R OE cells; competitor biotinylated his-tagged human CD112
Description: The ability of anti-CD112R antibodies to block CD112 binding to CD112R expressing cells was evaluated. 1×10⁵ Jurkat cells (acute T cell leukemia cell line, ATCC #TIB-152) that were engineered to over-express human CD112R (Jurkat-CD112R OE) were added to each well of a 96-well V bottom plate and stained with serial dilutions of either anti-CD112R antibodies or an IgG1 isotype control (highest concentration, 10 μg/mL) for 1 hour at 4° C. Cells were washed twice with PBS+2% FCS and resuspended with biotinylated his-tagged human CD112 (3 μg/mL) (BPS Bioscience, #71234) and PE Streptavidin (5 μg/mL) (Biolegend, #405204) in PBS+2% FCS and incubated at 2 hours at 4° C. Cells were subsequently washed twice and resuspended in PBS+2% FCS. Cellular data was acquired using a LSRFortessa X-20 (BD Biosciences) and analyzed with FlowJo software (Tree Star).
Results are depicted in FIG. 2A and Table 2. […] Percent inhibition was calculated as [100−((test sample MFI/Max MFI)*100%)]

B1: Antibody 46 (antibody, V domains shown)
VH: EVQLVESGGGLVQPGRSLRLSCTASGFTFGDYAMSWFRQAPGKGLEWVGFIGSKAYGGTTEYTASVKGRFTISRDGSKSIAYLQMNSLKTEDTAVYYCARGPRRYTYGMDVWGQGTTVTVSS
VL: DIQMTQSPSSLSASVGDRVTITCRASQSISSYLNWYQQKPGKAPKLLIYAASSLQSGVPSRFSGSGSGTDFTLTISSLQPEDFATYYCQQSSTPLTFGGGTKVEIK
notes: in the mouse tumor studies it was used as mouse IgG2a; also called antibody clone number 46; clone 46
gMFI (fold increase over isotype) [1]: 4.2 fold increase over isotype
gMFI (fold increase over isotype) [2]: 23.8 fold increase over isotype
CD112 blocking max inhibition (%) [3]: 95.5%
IC50 [3]: 0.0162 µg/mL

B2: Antibody 58 (antibody, V domains shown)
VH: EVQLVESGGGLVQPGRSLRLSCTASGFTFGDYAMSWFRQAPGKGLEWVGFIGSKFYGGETEYTASVKGRFTISRDGSKSIAYLQMNSLKTEDTAVYYCARGPRRYTYGMDVWGQGTTVTVSS
VL: DIQMTQSPSSLSASVGDRVTITCRASQSISSYLNWYQQKPGKAPKLLIYAASSLQSGVPSRFSGSGSGTDFTLTISSLQPEDFATYYCQQSSTPLTFGGGTKVEIK
notes: Purified as IgG; compared with an IgG1 isotype control and detected with anti-human IgG Fc; also called antibody clone number 58; clone 58
gMFI (fold increase over isotype) [1]: 4.5 fold increase over isotype
gMFI (fold increase over isotype) [2]: 37.3 fold increase over isotype
CD112 blocking max inhibition (%) [3]: 96.3%
IC50 [3]: 0.0028 µg/mL

B3: Antibody 32 (antibody, V domains shown)
VH: QVQLVQSGAEVKKPGSSVKVSCKASGGTFSSYAISWVRQAPGQGLEWMGGIIPISGTANYAQKFQGRVTITADESTSTAYMELSSLRSEDTAVYYCARDTGRGYTRHFWFDPWGQGTLVTVSS
VL: DIQMTQSPSSLSASVGDRVTITCRASQSISSYLNWYQQKPGKAPKLLIYAASSLQSGVPSRFSGSGSGTDFTLTISSLQPEDFATYYCQQSDILYTFGGGTKVEIK
notes: Purified as IgG; compared with an IgG1 isotype control and detected with anti-human IgG Fc; also called antibody clone number 32; parent clone 32
gMFI (fold increase over isotype) [1]: 2.5 fold increase over isotype
gMFI (fold increase over isotype) [2]: 27.9 fold increase over isotype
CD112 blocking max inhibition (%) [3]: 96%
IC50 [3]: 0.0236 µg/mL

B4: Antibody 33 (antibody, V domains shown)
VH: QVQLVQSGAEVKKPGSSVKVSCKASGGTFGNYAISWVRQAPGQGLEWMGGIIPIPGIANYAQKFQGRVTITADESTSTAYMELSSLRSEDTAVYYCARDTGRGYTRHFWFDPWGQGTLVTVSS
VL: DIQMTQSPSSLSASVGDRVTITCRASQSISSYLNWYQQKPGKAPKLLIYAASSLQSGVPSRFSGSGSGTDFTLTISSLQPEDFATYYCQQSDILYTFGGGTKVEIK
notes: Purified as IgG; compared with an IgG1 isotype control and detected with anti-human IgG Fc; also called antibody clone number 33; clone 33
gMFI (fold increase over isotype) [1]: 3.4 fold increase over isotype
gMFI (fold increase over isotype) [2]: 34.2 fold increase over isotype
CD112 blocking max inhibition (%) [3]: 97.4%
IC50 [3]: 0.0219 µg/mL

B5: Antibody 34 (antibody, V domains shown)
VH: QVQLVQSGAEVKKPGSSVKVSCKASGGTFSSAAISWVRQAPGQGLEWMGGIFPISGHANYAQKFQGRVTITADESTSTAYMELSSLRSEDTAVYYCARDTGRGYTRHFWFDPWGQGTLVTVSS
VL: DIQMTQSPSSLSASVGDRVTITCRASQSISSYLNWYQQKPGKAPKLLIYAASSLQSGVPSRFSGSGSGTDFTLTISSLQPEDFATYYCQQSDILYTFGGGTKVEIK
notes: Purified as IgG; compared with an IgG1 isotype control and detected with anti-human IgG Fc; also called antibody clone number 34; clone 34
gMFI (fold increase over isotype) [1]: 3.8 fold increase over isotype
gMFI (fold increase over isotype) [2]: 33.8 fold increase over isotype
CD112 blocking max inhibition (%) [3]: 96.9%
IC50 [3]: 0.0132 µg/mL

B6: Antibody 35 (antibody, V domains shown)
VH: QVQLVQSGAEVKKPGSSVKVSCKASGGTFSSAAISWVRQAPGQGLEWMGNIIPIVGIANYAQKFQGRVTITADESTSTAYMELSSLRSEDTAVYYCARDTGRGYTRHFWFDPWGQGTLVTVSS
VL: DIQMTQSPSSLSASVGDRVTITCRASQSISSYLNWYQQKPGKAPKLLIYAASSLQSGVPSRFSGSGSGTDFTLTISSLQPEDFATYYCQQSDILYTFGGGTKVEIK
notes: Purified as IgG; compared with an IgG1 isotype control and detected with anti-human IgG Fc; also called antibody clone number 35; clone 35
gMFI (fold increase over isotype) [1]: 3.3 fold increase over isotype
gMFI (fold increase over isotype) [2]: 32.1 fold increase over isotype
CD112 blocking max inhibition (%) [3]: 97.4%
IC50 [3]: 0.0162 µg/mL

B7: Antibody 36 (antibody, V domains shown)
VH: QVQLVQSGAEVKKPGSSVKVSCKASGGTFATYAISWVRQAPGQGLEWMGGIFPLSGTANYAQKFQGRVTITADESTSTAYMELSSLRSEDTAVYYCARDTGRGYTRHFWFDPWGQGTLVTVSS
VL: DIQMTQSPSSLSASVGDRVTITCRASQSISSYLNWYQQKPGKAPKLLIYAASSLQSGVPSRFSGSGSGTDFTLTISSLQPEDFATYYCQQSDILYTFGGGTKVEIK
notes: Purified as IgG; compared with an IgG1 isotype control and detected with anti-human IgG Fc; also called antibody clone number 36; clone 36
gMFI (fold increase over isotype) [1]: 3.5 fold increase over isotype
gMFI (fold increase over isotype) [2]: 31 fold increase over isotype
CD112 blocking max inhibition (%) [3]: 97.5%
IC50 [3]: 0.0244 µg/mL
